Source: FireProtDB (doi:10.1038/9384)

Conditions: Bos taurus; pH 5.3; 5 °C; GdnHCl; Fluorescence; Sodium acetate 0.02 M; whole UniProt chain shown

B1: Acyl-CoA-binding protein wild type, P07107 (protein)
chain: MSQAEFDKAAEEVKHLKTKPADEEMLFIYSHYKQATVGDINTERPGMLDFKGKAKWDAWNELKGTSKEDAMKAYIDKVEELKKKYGI
With B1 the denaturant m value was 3.53 kcal/mol/M and the unfolding free energy was 8.08 kcal/mol.
